Tests used:
[1] = target: T1, human CD47 on cells (CHO-K1/hCD47; human red blood cells RBC) (human, UniProt Q08722 19-323); experiment: flow cytometry, RBC mixed 20:1 with Raji, 10 μg/mL
T1 construct: whole, on cells; also called CHO-K1/human CD47; 红细胞

[2] = target: T2, human CD20 on cells (CHO-K1/CD20) (human, UniProt P11836 1-297); experiment: flow cytometry on CHO-K1/CD20 cells
T2 construct: whole, on cells; also called CHO-K1/hCD20; CHO-K1/human CD20
T2 sequence (looked up): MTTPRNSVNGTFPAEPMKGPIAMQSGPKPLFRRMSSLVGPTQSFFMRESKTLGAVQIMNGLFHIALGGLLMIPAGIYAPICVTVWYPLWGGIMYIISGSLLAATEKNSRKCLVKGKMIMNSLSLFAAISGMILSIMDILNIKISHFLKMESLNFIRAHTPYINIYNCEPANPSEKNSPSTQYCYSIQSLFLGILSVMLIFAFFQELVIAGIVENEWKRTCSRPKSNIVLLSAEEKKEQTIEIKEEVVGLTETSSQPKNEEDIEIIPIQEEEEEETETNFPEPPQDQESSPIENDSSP

hCD47-his = target: T3, hCD47-his (human, UniProt Q08722 19-139); experiment: ELISA, hCD47-his coated
T3 construct: Bought protein coated on the ELISA plate; also called Cat#CD7-H5227; not shown: his tag
T3 sequence (Q08722 19-139 limits assumed): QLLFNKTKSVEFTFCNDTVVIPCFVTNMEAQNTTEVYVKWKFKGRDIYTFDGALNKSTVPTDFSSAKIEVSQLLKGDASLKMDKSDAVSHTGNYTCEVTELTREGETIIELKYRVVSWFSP

T1 sequence (Q08722 19-323): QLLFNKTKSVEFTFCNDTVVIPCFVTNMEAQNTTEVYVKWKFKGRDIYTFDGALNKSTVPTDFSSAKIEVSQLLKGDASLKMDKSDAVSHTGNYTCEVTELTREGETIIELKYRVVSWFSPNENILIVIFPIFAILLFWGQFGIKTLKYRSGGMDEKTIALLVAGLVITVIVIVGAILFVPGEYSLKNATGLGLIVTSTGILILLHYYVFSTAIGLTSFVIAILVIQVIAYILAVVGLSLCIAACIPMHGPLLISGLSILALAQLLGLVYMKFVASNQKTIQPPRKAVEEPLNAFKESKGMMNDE

B1: 9020-1RP-1C1 (bispecific antibody)
heavy: not shown
light: QIVLSQSPAILSASPGEKVTMTCRASSSVSYIHWFQQKPGSSPKPWIYATSNLASGVPVRFSGSGSGTSYSLTISRVEAEDAATYYCQQWTSNPPTFGGGTKLEIK
notes: not shown: light chain constant region of the CD20 antibody
binding result [1]: binds | binding result [2]: binds

B2: 9020-1RP-1C2 (bispecific antibody)
heavy: not shown
light: QIVLSQSPAILSASPGEKVTMTCRASSSVSYIHWFQQKPGSSPKPWIYATSNLASGVPVRFSGSGSGTSYSLTISRVEAEDAATYYCQQWTSNPPTFGGGTKLEIK
notes: linker changed; not shown: light chain constant region of the CD20 antibody
binding result [1]: binds | binding result [2]: binds

B3: 9020-6RP (bispecific antibody)
heavy: QVQLQQPGAELVKPGASVKMSCKASGYTFTSYNMHWVKQTPGRGLEWIGAIYPGNGDTSYNQKFKGKATLTADKSSSTAYMQLSSLTSEDSAVYYCARSTYYGGDWYFNVWGAGTTVTVSA
light: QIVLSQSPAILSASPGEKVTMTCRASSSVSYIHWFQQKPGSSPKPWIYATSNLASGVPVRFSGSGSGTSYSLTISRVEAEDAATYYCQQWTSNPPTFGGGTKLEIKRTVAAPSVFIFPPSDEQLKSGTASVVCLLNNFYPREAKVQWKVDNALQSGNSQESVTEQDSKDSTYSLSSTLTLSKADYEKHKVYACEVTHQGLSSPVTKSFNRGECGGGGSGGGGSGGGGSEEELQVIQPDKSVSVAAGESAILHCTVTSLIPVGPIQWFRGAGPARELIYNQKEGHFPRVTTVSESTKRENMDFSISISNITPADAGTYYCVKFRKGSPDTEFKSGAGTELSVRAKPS
notes: Bispecific light chain co-transfected with the CD20 antibody heavy chain; not shown: IgG1 constant region
binding result [2]: binds

B4: 重组蛋白CD002 (Fc fusion)
chain: EEELQVIQPDKSVSVAAGESAILHCTVTSLFPVGPIQWFRGAGPARELIYNQRQGPFPRVTTVSETTKRENMDFSISISAITPADAGTYYCVKFRKGSPDTEFKSGAGTELSVRAKPS
notes: Control recombinant protein; the format is not described; not shown: not described
binding result (hCD47-his): binds

From CN111423515A (BETA PHARMA INC, dated 2020)
